{"source": "paper doi:10.1101/630269", "molecular_target": "Dendritic cell-specific ICAM-3 grabbing non-integrin (DC-SIGN, CD209) (human) (UniProt Q9NNX6)", "sequence (Q9NNX6 whole entry)": "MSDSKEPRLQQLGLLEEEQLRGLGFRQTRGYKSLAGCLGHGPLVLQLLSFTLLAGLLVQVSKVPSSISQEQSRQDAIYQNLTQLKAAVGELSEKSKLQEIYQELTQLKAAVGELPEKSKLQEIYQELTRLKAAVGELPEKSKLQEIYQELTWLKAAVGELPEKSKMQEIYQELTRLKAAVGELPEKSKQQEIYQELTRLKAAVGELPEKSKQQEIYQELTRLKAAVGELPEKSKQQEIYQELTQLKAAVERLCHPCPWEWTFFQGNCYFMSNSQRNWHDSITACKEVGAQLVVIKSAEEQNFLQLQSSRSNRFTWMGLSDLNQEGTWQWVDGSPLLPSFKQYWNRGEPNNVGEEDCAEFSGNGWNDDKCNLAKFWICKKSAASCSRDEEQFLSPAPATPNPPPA", "assay": "virion-cell binding assay"}
{"substance": "EBOV Makona glycoprotein GP-V82 (natural protein)", "values": [{"measurement": "fold binding relative to GP-A82", "value": 2, "unit": "fold"}]}
